Results on one molecule are retold here after publication doi:10.1101/2025.02.01.633781.

This series concerns the target FUS (recombinant, produced in-house) (UniProt P35637 1-526). Briefly: EMSA. A general note: A gel shift assay detects complexes by their altered migration in electrophoresis.

Chain of FUS (recombinant, produced in-house) (P35637 whole entry): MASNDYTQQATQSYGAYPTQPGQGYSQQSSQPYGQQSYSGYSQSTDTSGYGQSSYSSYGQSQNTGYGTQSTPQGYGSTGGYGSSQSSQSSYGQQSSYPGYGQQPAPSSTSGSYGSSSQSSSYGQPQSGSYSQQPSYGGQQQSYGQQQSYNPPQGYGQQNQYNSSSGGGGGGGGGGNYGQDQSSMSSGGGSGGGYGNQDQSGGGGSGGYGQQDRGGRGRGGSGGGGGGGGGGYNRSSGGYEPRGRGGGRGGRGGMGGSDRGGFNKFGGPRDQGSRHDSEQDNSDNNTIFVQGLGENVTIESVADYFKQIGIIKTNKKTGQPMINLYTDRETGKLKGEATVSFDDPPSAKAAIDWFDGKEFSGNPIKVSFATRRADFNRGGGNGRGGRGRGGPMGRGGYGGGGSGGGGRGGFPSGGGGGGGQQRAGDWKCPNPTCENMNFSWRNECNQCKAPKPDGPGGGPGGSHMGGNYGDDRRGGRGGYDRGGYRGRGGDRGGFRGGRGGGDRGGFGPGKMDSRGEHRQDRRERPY

Turning to GGACUCGGACUUGGACUCUGGACUUUGGAC (ssRNA) [4xDRACH], the binding result is reported as “binds”.
